Results on one molecule are retold here after paper PMC11470125.

This data set concerns the target T1, LbuCas13a (Leptotrichia buwadei? (printed only as …, UniProt C7NBY4 1-1159)).
T1 sequence: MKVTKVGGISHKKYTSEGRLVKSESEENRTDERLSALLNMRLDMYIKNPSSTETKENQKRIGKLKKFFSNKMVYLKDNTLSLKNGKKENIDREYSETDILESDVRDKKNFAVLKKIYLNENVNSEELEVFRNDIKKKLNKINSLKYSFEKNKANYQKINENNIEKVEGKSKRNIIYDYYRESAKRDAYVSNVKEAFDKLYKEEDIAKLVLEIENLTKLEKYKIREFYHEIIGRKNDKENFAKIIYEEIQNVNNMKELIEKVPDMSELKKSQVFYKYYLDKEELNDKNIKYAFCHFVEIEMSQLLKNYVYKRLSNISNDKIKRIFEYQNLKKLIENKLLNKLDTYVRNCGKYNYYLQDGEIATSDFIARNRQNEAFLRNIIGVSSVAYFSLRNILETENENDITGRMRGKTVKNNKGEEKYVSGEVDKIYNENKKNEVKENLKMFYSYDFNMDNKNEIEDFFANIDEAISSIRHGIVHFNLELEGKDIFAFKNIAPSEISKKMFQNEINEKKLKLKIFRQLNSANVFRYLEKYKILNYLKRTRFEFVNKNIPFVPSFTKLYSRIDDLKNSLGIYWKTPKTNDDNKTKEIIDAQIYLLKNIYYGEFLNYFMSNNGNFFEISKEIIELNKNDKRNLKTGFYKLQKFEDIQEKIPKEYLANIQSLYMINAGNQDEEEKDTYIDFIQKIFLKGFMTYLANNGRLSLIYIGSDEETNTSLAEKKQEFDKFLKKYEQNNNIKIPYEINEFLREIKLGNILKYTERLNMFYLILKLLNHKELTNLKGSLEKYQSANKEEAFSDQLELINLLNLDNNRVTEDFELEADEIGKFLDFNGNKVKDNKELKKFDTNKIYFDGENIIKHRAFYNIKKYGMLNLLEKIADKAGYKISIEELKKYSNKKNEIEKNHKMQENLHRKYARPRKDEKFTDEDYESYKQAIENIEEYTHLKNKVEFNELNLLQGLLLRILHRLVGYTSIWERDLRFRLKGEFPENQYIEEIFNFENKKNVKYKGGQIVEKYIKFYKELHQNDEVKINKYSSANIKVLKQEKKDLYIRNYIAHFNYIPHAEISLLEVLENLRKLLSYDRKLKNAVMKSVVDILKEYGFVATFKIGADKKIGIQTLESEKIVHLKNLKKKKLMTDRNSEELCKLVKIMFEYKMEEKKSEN
In words: competition.

B1: Cas13a crRNA with scrambled ssDNA, unlabelled competitor (mixed)
RNA: GAUUUAGACCACCCCAAAAAUGAAGGGGACUAAAACUGGGUGUUUGACAAGUUGUAUUGCAAUC
DNA: TCCACATCATCACTATTAACAAGGAACACTCCGAGGGT
B1: the binding result is recorded as “no binding”.
